These binders were tested against SARS-CoV-2 spike protein (SARS-CoV-2, UniProt P0DTC2 14-1208) (assay: not given).

Binder | Kd [nM] | koff [s⁻¹] | kon [M⁻¹ s⁻¹]
antibody 465 (antibody, V domains shown) VH: QITLKESGPTLVKPTQTLTLTCTFSGFSLSTSGVGVGWIRQPPGKALEWLALIYWDDDKHYSPSLKSRLTITKDTSKNQVVLTMTNMDPVDTATYYCAHMYYDILSGYYYGMDVWGQGTTVTVSS VL: not shown | 6.97 | 6.06e-05 | 8700
antibody 451 (antibody, V domains shown) VH: EVQLVESGGGLVQPGGSLRLSCAASGFTFSTYWMSWVRQAPGKGLEWVANIKQDGSEKYYVDSVKGRFTISRDNAKNSLYLQMNSLRAEDTAVYYCARLGGSSWYFDYWGQGTLVTVSS VL: not shown | 0.429 | 6.02e-05 | 140000
antibody 440 (antibody, V domains shown) VH: EVQLLESGGGLVQPGGSLRLSCAASGFTFSSYAMSWVRQAPGKGLEWVSAISGSGVNTYHADSVKGRFTISRDNSRNTLYLQMSSLTAEDTAAYYCAKDFEAASGAYYYYGMDVWGQGTTVTVSS VL: SYELTQPPSVSVSPGQTARITCSGDALPDQYAYWYQQKPGQAPVVVIYKDRERPSGIPERFSGSNSGTTVTLTISGVQAEDEADYYCQSADSSATYVVFGGGTKLTVL | 7.93 | 0.000291 | 36700
antibody 468 (antibody, V domains shown) VH: QVQLVESGGGVVQPGRSLRLSCAASGFTFSIYAMHWVRQAPGKGLEWVAVISYDGSNKYYADSVKGRFTISRDNSKNTLYLQMNSLRAEDTAVYYCAGSLPAGSYYYYYGMDVWGQGTTVTVSS VL: SYELTQPPSVSVSPGQTARITCSGDALPKQYAYWYQQKPGQAPVLVIYKDSERPSGIPERFSGSSSGTTVTLTISGVQAEDEADYYCQSADNSGTYVLFGGGTKLTVL | 0.463 | 3.67e-05 | 79200
antibody 441 (antibody, V domains shown) VH: EVQLVESGGGVVRPGGSLRLSCAASGFTFGDYGMSWVRQAPGKGLEWVSGINWNGGSTGYADSVKGRFTISRDNAKNSLYLQMNSLRAEDTALYYCASDLVRGVIGFDYWGQGTLVTVSS VL: SYELTQPPSVSVSPGQTARITCSGDALPKQYAYWYQQKPGQAPVLVIYKDSERPSGIPERFSGSSSGTTVTLTISGVQAEDEADYYCQSADSSGITGVFGGGTKLTVL | 3.46 | 0.000318 | 91900
antibody 458 (antibody, V domains shown) VH: QVQLVESGGGVVQPGRSLRLSCAASEFTFATYAMHWVRQAPGKGLEWVALISQDGSNKHYADSVKGRFTISRDNSKNTLYLQMNSLRAEGTAIYYCARESLEAAGPPFDYWGQGTLVTVSS VL: SYELTQPPSVSVSPGQTATIICSGDKLGEKYASWYQQKPGQSPALVIYQDRKRPSGIPERFSGSNSGNTATLTISGTQAMDEADYYCQAWDSSNSVVFGGGTKLTVP | 0.334 | 8.87e-05 | 266000
antibody 453 (antibody, V domains shown) VH: QVQLVESGGGVVQPGRSLRLSCAASGFTFSSYAMYWVRQAPGKGLEWVAVISYDGSNKYYADSVKGRFTISRDNSKNTLYLQMNSLRAEDTAVYYCARDRPHYYGSGRKILNLYGMDVWGQGTTVTVSS VL: DIQLTQSPSFLSASVGDRVTITCRASQGISSYLAWYQQKPGKAPKLLIYAASTLQSGVPSSFSGSGSGTEFTLTISSLQPEDFATYYCQQLNSYPPFTFGPGTKVDIK | 1.61 | 0.000154 | 95600
antibody 455 (antibody, V domains shown) VH: QVQLVQSGAEVKKPGSSVKVSCKASGGTFSSYAISWVRQAPGQGLEWMGRIIPILGIANYAQKFQGRVTITADKSTSTAYMELSSLRSEDTAVYYCARDSIVVPAAIISGYYYYGMDVWGQGTTVTVSS VL: QSVLTQPPSVSAAPGQKVTISCSGSSSNIGNNYVSWYQQLPGTAPKLLIYDNNKRPSGIPDRFSGSKSGTSATLGITGLQTGDEADYYCGTWDSSLSAGRVFGGGTKLTVL | 0.866 | 9.23e-05 | 107000
antibody 462 (antibody, V domains shown) VH: QVQLVESGGGVVQPGRSLRLSCAASGFTFSSYGMHWVRQAPGKGLEWVAVIWYDGNNKYYADSVKGRFTISRDNSKNTLYLQMNSLRAEDTAVYYCAKDPTWFGELPSYYYYGMDVWGQGTTVTVSS VL: not shown | 9.31 | 0.00117 | 125000
antibody 448 (antibody, V domains shown) VH: QVQLVQSGAEVKKPGASVKVSCKASGYTFTSYGISWVRQAPGQGLEWMGWISAYNGNTNYAQKLQGRVTMTTDTSTSTAYMELRSLRSDDTAVYYCAIELLEGFYYYYGMDVWGQGTTVTVSS VL: SYELTQPPSVSVSPGQTARITCSGDALPKQYAYWYQQKPGQAPVLVIYKDSERPSGIPERFSGSSSGTTVTLTISGVQAEDEADYYCQSADSSGTYPYVVFGGGTKLTVL | 37.5 | 0.000692 | 18500
antibody 449 (antibody, V domains shown) VH: not shown VL: QSALTQPASVSGSPGQSITISCTGTSSDVGGYNYVSWYQQHPGKAPKLMIYEVSNRPSGVSNRFSGSKSGNTASLTISGLQAEDEADYYCSSYTSSSTVVFGGGTKLTVL | 9.17 | 0.000526 | 57400
antibody 469 (antibody, V domains shown) VH: QVQLVESGGGVVQPGRSLRLSCAASGFTFSSYGMHWVRQAPGKGLEWVAVIWYDGSNKYYADSVKGRFTISRDNSKNTLYLQMNSLRAEDTAVYYCARDLLSVGWSFDYWGQGTLVTVSS VL: not shown | 0.133 | 8.39e-05 | 630000
antibody 489 (antibody, V domains shown) VH: QVQLVESGGGVVQPGRSLRLSCAASGFTFSSYAMHWVRQAPGKGLEWVAVISYDGSNKYYADSVKGRFTISRDNSKNTLYLQMNSLRAEDTAVYYCARAGSGNYYNWFDPWGQGTLVTVSS VL: not shown | 0.317 | 4.85e-05 | 153000
antibody 481 (antibody, V domains shown) VH: EVQLVESGGGLIQPGGSLRLSCAASGFTVSSNYMSWVRQAPGKGLEWVSVIYSGGSTFYADSVKGRFTISRDNSKNTLYLQMNSLRAEDTAVYYCAREVAGTYDYWGQGTLVTVSS VL: DIQMTQSPSSVSASVGDRVTITCRASQGISSWLAWYQQKPGKAPKLLIYAASSLQSGVPSRFSGSGSGTDFTLTISSLQPEDFATYYCQQANSFPGGTFGPGTKVDIKR | 0.273 | 2.96e-05 | 109000
antibody 461 (antibody, V domains shown) VH: EVQLVESGGGLVKPGGSLRLSCAASGFTFSSYSMNWVRQAPGKGLEWVSSISSSSSYIYYADSVKGRFTISRDNAKNSLYLQMNSLRAEDTAVYYCASNPAAGQEAYYYYGMDVWGQGTTVTVSS VL: not shown | 3.92 | 0.000377 | 96300

Each binder was assayed against T1, SARS-CoV-2 spike protein (SARS-CoV-2, UniProt P0DTC2 14-1208) (assay: HT-SPR, Carterra LSA; mAb coupled to chip, antigen injected; 1:1 fit).
T1 construct: also called SARS-CoV-2 S protein; antigen of interest

Binder | Kd [nM] | koff [s⁻¹] | kon [M⁻¹ s⁻¹]
antibody 520 (antibody, V domains shown, also called mAb 520) VH: QVQLVESGGGVVQPGRSLRLSCAASGFTFSSYAMHWGRQAPGKGLEWVAVISYDGSNKYYADSVKGRFTISRDNSKNTLYLQMNSLRAEDTAVYYCARDGGSGWLLVGNWFDPWGQGTLVTVSS VL: QSALTQPASVSGSPGQSITISCTGTSSDVGGYNYVSWYQQHPGKAPKLMIYDVSNRPSGVSNRFSGSKSGNTASLTISGLQAEDEADYYCSSYTSSITLYVFGTGTKVTVL | ≤ 0.229 | ≤ 1e-05 | 43600
antibody 500 (antibody, V domains shown, also called mAb 500) VH: QVQLVESGGGVVQPGRSLRLSCAASGFTFSSYAMHWVRQAPGKGLEWVAVISYDGSNKYYADSVKGRFTISRDNSKNTLYLQMNSLRAEDTAVYYCAKSRDGYKLFDIWGQGTMVTVSS VL: not shown | 0.43 | 0.000114 | 266000
antibody 502 (antibody, V domains shown) VH: QVQLVQSGAEVKKPGASVKVSCKASGYTFTSYYMHWVRQAPGQGLEWMGIINPSGGSTSYAQKFQGRVTMTRDTATSTVYMELSSLRSEDTAVYYCARGGGQISMIIVVMDDAFDIWGQGTMVTVSS VL: not shown | 2.49 | 0.000269 | 108000
antibody 515 (antibody, V domains shown) VH: EVQLVESGGGLVKPGGSLRLSCAASGFTFSSYSMNWVRQAPGKGLEWVSSISSSSSYIYYADSVKGRFTISRDNAKNSLYLQMNSLRAEDTAVYYCASIAAAGTLYYYYGMDVWGQGTTVTVSS VL: not shown | 44.2 | 0.00134 | 30200
antibody 506 (antibody, V domains shown) VH: QITLKESGPTLVKPTQTLTLTCTFSGFSLSTSGVGVGWIRQPPGKALEWLALIYWDDDKRYSPSLKSRLTITKDTSKNQVVLTMTNMDPVDTATYYCAHHSLSSIFDYWGQGTLVTVSS VL: QSALTQPASVSGSPGQSITISCTGTSSDVGDYNYVSWYQQHPGKAPKLMIYEVSNRPSGVSNRFSGSKSGNTASLTISGLQAEDEADYYCSSYTSSSTVFGGGTKLTVLG | 0.523 | 0.00021 | 401000
antibody 501 (antibody, V domains shown) VH: QVQLVQSGAEVKKPGASVKVSCKASGYTFTSYYVHWVRQAPGQSLEWMGVISPSTGSTTYAQNFQGRVTMTRDTSTTTVYMELSSLRSEDTAVYYCARDDYYDSTRYFDLWGRGTLVTVSS VL: QSALTQPASVSGSPGQSISFSCTGTSSDIGAYNYVSWYQQHPGRAPKLMIYDVGNRPSGVSNRFSGSKSGNTASLTISGLQAEDEADYYCSSYTSSSTQVFGTGTKVTVL | 8.78 | 0.000261 | 29800
antibody 518 (antibody, V domains shown) VH: QVQLVESGGGVVQPGRSLRLSCAASGFTFSSYAMHWVRQAPGKGLEWVAVISYDGSNKYYADSVKGRFTISRDNSKNTLYLQMNSLRAEDTAVYYCAKPYSGSYWDAFDIWGQGTMVTVSS VL: not shown | 0.0685 | 2.75e-05 | 401000
antibody 513 (antibody, V domains shown) VH: QVQLVESGGGVVQPGRSLRLSCAASGFTFSSYAMHWVRQAPGKGLEWVAVISYDGSNKYYADSVKGRFTISRDNSKNTLYLQMNSLRAEDTAVYYCARAGSGSYYNWFDPWGQGTLVTVSS VL: QSALTQPASVSGSPGQSITISCTGTSSDVGGYNYVSWYQQHPGKAPKLMIYEVSNRPSGVSNRFSGSKSGNTASLTISGLQAEDEADYYCSSYTSSSTPYVFGTGTKVTVL | 0.0996 | 2.62e-05 | 263000

From US20210292393A1 (published 2021)
